Square brackets hold non-standard residues; d marks the D form. pGlu = O=C1CC[C@@H](C(=O)O)N1; PEG = not defined here

For experiment [1], the target named is T1, orexin A pyroglutamate-peptide (UniProt O43612 34-66, N-terminal pyroglutamate).
T1 peptide (looked up): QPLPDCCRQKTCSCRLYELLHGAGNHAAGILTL
The experiment in a line: SPR, peptide immobilized on CM5 chip (data not shown).

The target in experiment [2] is T2, CCL8 (known as MCP-2) pyroglutamate-peptide (UniProt P80075 24-99, limits assumed, N-terminal pyroglutamate).
T2 sequence (peptide, looked up): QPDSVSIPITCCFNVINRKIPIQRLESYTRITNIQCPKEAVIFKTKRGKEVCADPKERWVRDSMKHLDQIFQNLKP
Described as above.

The target in experiment [3] is neurotensin pyroglutamate-peptide (UniProt P30990 151-163, N-terminal pyroglutamate). The description is as above.
For experiment [4], the target named is T3, big gastrin pyroglutamate-peptide (UniProt P01350 59-92, N-terminal pyroglutamate).
T3 peptide (looked up): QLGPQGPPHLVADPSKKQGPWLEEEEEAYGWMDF
Described as above.

The target in another experiment is T4, Aβ(pE11-20)-biotin.
T4 construct: Immobilized on streptavidin-coated microplates in the auto-Ig-ELISA
T4 peptide: [pGlu]VHHQKLVFF-biotin
The experiment in a line: ELISA: 200 ng/ml Aβ(pE11-20)-biotin on streptavidin plate, antibody 55-3500 pg/ml, detection with rabbit anti-mouse Ig's HRP, absorption 450/540 nm. As to the method:
Immobilization of 200 ng/ml Aβ(pE11-20)-biotin at streptavidin coated microplate (2 h, at RT). Blocking with 200 μl ELISA-Blocker (−T) 1 h at RT and followed by wash cycle (3×300 μl/well wash buffer). Standard anti Aβ11(pE) antibody (clone 13) was diluted in ELISA-Blocker (+T) in radix division from 3500 pg/ml down to 55 pg/ml and incubated 2 h at 4° C. A wash cycle followed and detection with polyclonal rabbit anti-mouse Ig's HRP 1 h at 4° C. After wash cycle TMB/H₂O₂ were added, incubated 30 min at RT (dark) and enzyme reaction was stopped with 1 M H₂SO₄. Absorption was measured at 450/540 nm at TECAN Sunrise.

The next experiment addresses T5, Aβ(pE11-18)-PEG peptide (reading uncertain).
T5 construct: The PEG attachment is not described further
T5 peptide: [pGlu]VHHQKLV-{PEG}
The experiment in a line: ITC at 20 °C, peptide titrated into antibody eluted with 0.1 M glycine-HCl pH 2.7. The procedure:
For the ITC experiment, the peptide Aβ(pE11-18)-PEG was used because the hydrophilic PEG group imparts hydrophilic properties and so it was possible to dissolve the peptide directly in ITC buffer. Former experiments with Aβ(pE11-20) could only be performed with 1-2% DMSO, due to the strong hydrophobicity of the peptide it was necessary to dissolve it with DMSO which could have an effect on the ITC binding properties. At first the antibody was dialyzed against ITC buffer (150 mM NaCl, 25 mM Na₂HPO₄, 25 mM KH₂PO₄, 1 mM EDTA, pH=7.1) over night at 4° C. The lyophilised peptide, stored at −20° C., was dissolved in identical ITC buffer pH=7.1 which was used for antibody dialysis. Both antibody and antigen must be in identical solutions, otherwise large heats of dilution will mask the desired observation. Before the ITC experiment, the concentration of antibody was determined by UV/VIS spectroscopy (see section 1.3.1). At first the antibody with e.g. 5.13 μM (see Table 4) was added into the sample cell and the reference cell was filled with distilled water. Then the antigen was injected into the sample cell with e.g. 81.78 μM (see Table 4). The antigen should be generally in twofold excess to the antibody, bearing in mind that an antibody has two binding sites the antigen was in the cell at least in fourfold excess to the antibody. The 30 injections (1×2 μl and 29×10 μl) were made with a 4-min interval between subsequent injections. The measurement of heat of reaction was performed at 20° C. Furthermore the heat of reaction was determined which was only generated by dilution of the antigen through the titration into ITC buffer (pH=7.1). Therefore the antigen was injected into the sample cell filled with ITC buffer. […]
To characterize the binding of anti Aβ11(pE) antibody at the Aβ(pE11-18)-PEG peptide the method of Isothermal Titration calorimetry (ITC) was used (see section 1.3.4). The antibody which was eluted from protein G column with KSCN-gradient (pH 7.0) and 0.1 M glycine-HCl (pH 2.7) was analyzed.

For another experiment, the target named is T6, Aβ(pE11-30) peptide (N-terminal pyroglutamate (Aβ position 11)).
T6 construct: Synthesized peptide; Amine-coupled to a CM5 chip for SPR, or adsorbed to the microplate for the direct ELISA
T6 peptide: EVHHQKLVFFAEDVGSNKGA
The experiment in a line: SPR (Biacore 3000), purified antibody 0.04-10 µg/ml, 30 µl/min for 300 s, CM5 chip with immobilized Aβ(pE11-30); signal taken at the end of the dissociation phase, non-coated flow cell subtracted. The procedure:
Then the coupling of peptide followed. At first 10 μg/ml peptide Aβ(pE11-30) in 10 mM potassiumdihydrogenorthophosphate pH 6 was injected with a flow rate of 10 μl/min for 5 min. Because of the low signal rise the peptide was applied again with a higher concentration diluted in a solution with pH 5. 50 μg/ml peptide Aβ(pE11-30) in 10 mM sodium acetate pH 5 was injected with a flow rate of 10 μl/min for 20 min. A mild acid pH was chosen for coupling to provide a pre-concentration of the peptide (positive net charge) at the sensor surface (carboxyl group negative net charge) by electrostatic attraction. The covalent bond of the peptide was formed by the reaction of the two amino acids lysine (at peptide position 16 and 28) with the activated carboxyl group at chip surface. Excess reactive ester groups were deactivated with 1 M ethanolamine pH 8.5 with a flow rate of 10 μl/min for 10 min. Non-immobilized peptides were removed by injection of 0.1 M HCl (3×10 μl) and subsequently the chip was rinsed over night with running buffer. At the end the signal was about 1000 Response Units (RU) whereby the chip surface was saturated with the peptide.
For the measurement of anti Aβ11(pE) antibody concentration a CM5 chip, which was coated with Aβ(pE11-30) was used. The chip surface was saturated with the peptide and the signal was about 1000 Response Units (RU) (see section 1.3.3.1). […]

B1: monoclonal mouse anti Aβ11(pE) antibody Aβ 13-11-6 (clone 13), Deposit No. DSM ACC 3100 (antibody, V domains shown)
VH: QVQLQQPGTELVKPGASVKLSCKASGFTFTSYWMHWVRQRPGQGLEWIGEINPSNGRTNYNEKFKSKATLTVDKSSSTAYMQLSSLTSEDSEVYYCARGDLAWDWSAYWGQGTLVTVSA
VL: DIVMSQSPSSLAVSAGEKVTMSCKSSQSLFYSRTRKNYLAWYQQKPGQSPKLLIYWASTRESGVPDRFTGSGSGTDFTLTISSVQAEDLAVYYCKQSYNLWSFGGGTKLEIKR
notes: The KSCN-eluted and glycine-HCl-eluted preparations are the same molecule; also called pEVHH-59025 13-11-6; mAb mouse anti Aβ11(pE)
Turning to B1, the binding result is on record as “no binding (tested: 1 µg/ml antibody)” in experiment [1]; “no binding (tested: 1 µg/ml antibody)” in experiment [2]; “no binding (tested: 1 µg/ml antibody)” in experiment [3]; “no binding (tested: 1 µg/ml antibody)” in experiment [4]; “binds” with Aβ(pE11-20)-biotin. Also, in the experiment with Aβ(pE11-18)-PEG peptide, the “-TΔS” value was -1.36 kcal/mol. Besides, the Ka with Aβ(pE11-18)-PEG peptide turned out to be 9.5e+06 M⁻¹. Besides, the “Stoichiometry (N)” value in the experiment with Aβ(pE11-18)-PEG peptide turned out to be 1.01. The “EC50 (read off the curve)” value in the experiment with Aβ(pE11-30) peptide is approximately 1 µg/mL.
